Measurements: the supplement of paper PMC7125110
± gives the standard error. For some assays here: Fewer inactive variants are shown than the library holds.

B1: glmS ribozyme (parent)
chain: AUAAAAGCGCCAGAACUACAGAAAUGUAGUUGACGAGGAGGAGGUUUAUCGAAUUUUCGGCGGAUGCCUCCAAA

Assays:
Details in all cases: with glucosamine-6-phosphate
[1] = variants of: B1; experiment: kcat; higher = faster cleavage; RNA array
Outline: (§1)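 A hybridised Cy3 probe tracked barcoded ribozyme variants, transcribed in situ by E. coli RNA polymerase on sequenced MiSeq chips, at 37 °C. The variants received 40 μM to 10 mM glucosamine-6-phosphate in HEPES/KCl/Mg(OAc)2 buffer. kobs came from decay fits and kcat and KM from weighted Michaelis–Menten fits.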

[2] = variants of: B1; experiment: KM; higher = weaker cofactor use; RNA array
Outline: as §1

[3] = variants of: B1; experiment: self-cleavage kobs at 160 uM GlcN6P; higher = faster cleavage; RNA array
Outline: as §1

[4] = variants of: B1; experiment: self-cleavage kobs at 640 uM GlcN6P; higher = faster cleavage; RNA array
Outline: as §1

[5] = variants of: B1; experiment: self-cleavage kobs at 2500 uM GlcN6P; higher = faster cleavage; RNA array
Outline: as §1

[6] = variants of: B1; experiment: self-cleavage kobs at 10000 uM GlcN6P; higher = faster cleavage; RNA array
Outline: as §1

[7] = variants of: B1; experiment: self-cleavage kobs at 40 uM GlcN6P; higher = faster cleavage; RNA array
Outline: as §1

Row | Variant | kcat [1] [s⁻¹] | KM [2] [µM] | self-cleavage kobs at 160 uM GlcN6P [3] [s⁻¹] | self-cleavage kobs at 640 uM GlcN6P [4] [s⁻¹] | self-cleavage kobs at 2500 uM GlcN6P [5] [s⁻¹] | self-cleavage kobs at 10000 uM GlcN6P [6] [s⁻¹] | self-cleavage kobs at 40 uM GlcN6P [7] [s⁻¹]
1 | G29C A39C | 0.000582 ± 8.5e-05 | 4360 ± 1100 | 6.14e-05 ± 2.9e-05 | 7.25e-05 ± 1.1e-05 | 0.000212 ± 3e-05 | 0.000406 ± 4.2e-05 | 
2 | G29A U55G | 0.00132 ± 0.00029 | 2980 ± 960 | 5.56e-05 ± 1.3e-05 | 0.000305 ± 6.3e-05 | 0.000622 ± 0.00011 | 0.000954 ± 0.00021 | 
3 | G29A U55A | 0.00461 ± 0.0011 | 1320 ± 440 | 0.000532 ± 9.2e-05 | 0.00123 ± 0.00015 | 0.00332 ± 0.00066 | 0.00456 ± 0.00065 | 0.000165 ± 2e-05
4 | C16A C67A | 0.000254 ± 2.7e-05 | 598 ± 150 | 6.97e-05 ± 1.3e-05 | 0.000123 ± 1.2e-05 | 0.00021 ± 3.3e-05 | 0.000248 ± 2.9e-05 | 
5 | C16U A48U | 0.000375 ± 9.7e-06 | 2630 ± 150 |  | 7.24e-05 ± 1.5e-05 | 0.000181 ± 4.1e-05 | 0.000297 ± 3.3e-05 | 
6 | C16U A48G | 7.95e-05 ± 1.2e-05 |  |  |  | 6.63e-05 ± 1.1e-05 | 6.95e-05 ± 8.6e-06 | 
7 | C16A C61G | 1.13e-05 ± 1.7e-08 | 158.6 ± 1.5 |  |  |  |  | 
8 | G29C G38A | < 1e-05 |  |  |  |  | < 1e-05 | < 1e-05
9 | C16U A39U | 0.0586 ± 0.022 | 9390 ± 4200 | 0.00114 ± 0.00038 | 0.00392 ± 0.00055 | 0.0111 ± 0.0017 | 0.034 ± 0.0081 | 
10 | A20C | 0.0144 ± 0.0036 | 327 ± 110 | 0.00529 ± 0.0011 | 0.00992 ± 0.003 | 0.0111 ± 0.0039 |  | 0.00153 ± 0.00021
11 | G29C U55C | 0.00285 ± 0.001 | 3510 ± 1600 | 0.00011 ± 1.7e-05 | 0.000561 ± 0.0001 | 0.00116 ± 0.00023 | 0.00205 ± 0.00062 | 5.28e-05 ± 1.7e-05
12 | C16G U46C | 0.000353 ± 5e-05 | 2310 ± 630 |  | 8.24e-05 ± 2.7e-05 | 0.000169 ± 3.5e-05 | 0.00032 ± 9e-05 | 
13 | C16A G32C | 9.38e-05 ± 2.3e-06 | 1220 ± 140 |  | 3.44e-05 ± 1.6e-05 | 5.99e-05 ± 1.7e-05 | 8.41e-05 ± 1e-05 | 
14 | C16A G32A | 0.0012 ± 0.00043 |  |  | 0.000229 ± 0.00011 |  | 0.000787 ± 0.00012 | 
15 | G29C G40A | 0.000208 ± 2.8e-05 | 747 ± 260 | 3.05e-05 ± 9.1e-06 | 0.000102 ± 1.6e-05 | 0.000221 ± 3.6e-05 | 0.000178 ± 2.1e-05 | 
16 | C16A U54G | 0.00103 ± 0.0004 |  | 9.7e-05 ± 1.9e-05 | 0.00029 ± 4.8e-05 | 0.000532 ± 9.9e-05 | 0.00141 ± 0.00027 | 4.66e-05 ± 1e-05

Row | Variant | kcat [1] [s⁻¹] | KM [2] [µM] | self-cleavage kobs at 160 uM GlcN6P [3] [s⁻¹] | self-cleavage kobs at 640 uM GlcN6P [4] [s⁻¹] | self-cleavage kobs at 2500 uM GlcN6P [5] [s⁻¹] | self-cleavage kobs at 10000 uM GlcN6P [6] [s⁻¹] | self-cleavage kobs at 40 uM GlcN6P [7] [s⁻¹]
17 | G29A A33C | 5.32e-05 ± 1.2e-05 |  |  |  | 5.47e-05 ± 1.8e-05 | 4.65e-05 ± 1.4e-05 | < 1e-05
18 | C16G U65A | 0.000589 ± 6.3e-05 | 3010 ± 580 |  | 0.000107 ± 1.4e-05 | 0.00027 ± 6.5e-05 | 0.00045 ± 4.9e-05 | 
19 | C16A G29A | 0.00235 ± 0.00058 | 1790 ± 630 | 0.000175 ± 3.3e-05 | 0.000549 ± 9.9e-05 | 0.00127 ± 0.00024 | 0.00227 ± 0.00042 | 7.39e-05 ± 1.3e-05
20 | G29U A53G | 0.00448 ± 0.0019 |  | 0.000262 ± 5.4e-05 | 0.000805 ± 0.00012 | 0.0021 ± 0.00029 | 0.00417 ± 0.00059 | 0.000165 ± 2.5e-05
21 | C16A G51A U56G C68G | 1.58e-05 ± 2.3e-06 |  |  |  |  |  | 
22 | C16U G40C | 0.00242 ± 0.00035 | 1020 ± 220 | 0.000291 ± 3.7e-05 | 0.000837 ± 8.6e-05 | 0.00184 ± 0.00021 | 0.00227 ± 0.00027 | 0.00011 ± 1.1e-05
23 | C16U A64G | 0.018 ± 0.0074 |  | 0.00126 ± 0.00023 | 0.00457 ± 0.00072 | 0.0111 ± 0.0028 | 0.0176 ± 0.0031 | 0.000665 ± 7.5e-05
24 | G29C C68G | 2.94e-05 ± 9e-06 |  |  | 5.49e-05 ± 1.9e-05 | 3.19e-05 ± 1.5e-05 |  | 
25 | G29A A42G | 0.00587 ± 0.0021 | 1120 ± 510 | 0.000587 ± 0.00015 | 0.00227 ± 0.00083 | 0.00308 ± 0.0011 | 0.00757 ± 0.0021 | 0.00025 ± 4.4e-05
26 | C16A A33U | 1.2e-05 ± 3e-06 |  | < 1e-05 |  |  |  | < 1e-05
27 | A20G G37C C58A | 1.09e-05 ± 2.8e-06 |  |  |  |  |  | 
28 | G29U A48U | 4.34e-05 ± 5.3e-06 |  |  |  | 4.72e-05 ± 1.3e-05 | 3.9e-05 ± 9.4e-06 | 
29 | G29U A48G | 1.1e-05 ± 1.6e-06 |  |  |  |  |  | 
30 | G29C A53C | 0.000417 ± 2.8e-05 | 1380 ± 180 | 4.1e-05 ± 1.7e-05 | 0.00013 ± 1.7e-05 | 0.00029 ± 4.5e-05 | 0.000356 ± 5.1e-05 | 
31 | G29C A53G | 0.00235 ± 0.00053 | 2630 ± 900 | 0.000154 ± 2.3e-05 | 0.000398 ± 5.6e-05 | 0.000948 ± 0.00014 | 0.00209 ± 0.00021 | 4.79e-05 ± 7.8e-06
